Literature values, collected in US8618048B2, “Insulin analogues of prolonged activity” (Instytut Biotechnologii I Antybiotyków, priority 2008, dated 2013).

Conditions: background statement

Question: Which isoelectric point does the source give for “unmodified natural insulin: unmodified natural insulin” here?
Answer: 5.4
